{
  "source": "patent EP1591450A1",
  "about": "“CONJUGATE FOR RETENTION IN BLOOD AND CANCER TISSUE-SPECIFIC DRUG DELIVERY” (YAMANOUCHI PHARMACEUTICAL CO. LTD., priority 2003, dated 2004)",
  "key": {"[1]": {"test": "Particle diameter determination of peptide-PEG micelles (NICOMP Model 370)", "assay_type": "physicochemical", "description": "The particle diameter of the micelles and the liposomes was determined with the NICOMP Model 370 (Particle Sizing Systems, Inc.).\nThen particle diameter was determined by a laser diffraction particle diameter distribution determination device (NICOMP Model 370)(Table1)."}, "MMP-2": {"target": "T1, MMP-2 (Homo sapiens, UniProt P08253)", "T1 sequence (P08253 110-660)": "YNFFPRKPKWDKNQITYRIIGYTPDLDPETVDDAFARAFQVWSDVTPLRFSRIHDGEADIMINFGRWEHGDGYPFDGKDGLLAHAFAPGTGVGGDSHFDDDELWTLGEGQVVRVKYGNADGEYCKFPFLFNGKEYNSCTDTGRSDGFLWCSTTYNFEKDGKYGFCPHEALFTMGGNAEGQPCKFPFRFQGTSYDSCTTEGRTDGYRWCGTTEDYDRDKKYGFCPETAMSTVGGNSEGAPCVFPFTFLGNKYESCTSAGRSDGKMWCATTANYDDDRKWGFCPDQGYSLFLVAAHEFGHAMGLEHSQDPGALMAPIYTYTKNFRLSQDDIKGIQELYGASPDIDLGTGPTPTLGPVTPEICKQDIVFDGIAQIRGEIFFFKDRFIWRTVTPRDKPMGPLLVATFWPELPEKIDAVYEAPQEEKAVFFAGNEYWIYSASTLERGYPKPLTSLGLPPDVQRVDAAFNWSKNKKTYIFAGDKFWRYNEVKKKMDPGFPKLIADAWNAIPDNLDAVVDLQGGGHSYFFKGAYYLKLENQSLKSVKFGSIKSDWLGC", "test": "Enzymatic degradation of peptide and peptide-PEG by MMP-2", "assay_type": "biochemical", "details": "beginning of reaction (15 minutes), 37°C, Tris buffer pH 7.5; Figure 4", "description": "After mixing in 0.5 ml of sample in 0.5 ml of acetonitrile, the mixture was filtered and gel filtration was performed.\nMMP-2 solution was diluted with Tris buffer. […] The final concentration of MMP-2 was 0.34 µg/ml. […] The Fmoc-GPQGIAGWG-PEG in the filtrate was separated and quantitatively determined by gel filtration."}, "collagenase": {"test_system": "collagenase", "details": "per unit weight of enzyme and unit time, beginning (15 minutes) of reaction, 37°C, Tris buffer pH 7.5; MMP-2 0.17 µg/ml, collagenase 7 µg/ml", "description": "(§1) Fmoc-[…] was dissolved in Tris buffer (100 mM Tris/100 mM NaCl/10 mM CaCl2/0.05% BRIJ35, pH 7.5) and adjusted to a pre-determined concentration. MMP-2, collagenase, carboxypeptidase A, aminopeptidase-1, and trypsin were each diluted or dissolved in Tris buffer. Each enzyme solution was added to Fmoc-[…] solution that had been heated to 37°C and incubated for a pre-determined time at 37°C. The final concentration of the enzymes was as shown below: MMP-2: 0.17 µg/ml, collagenase: 7 µg/ml, carboxypeptidase A: 10 µg/ml, aminopeptidase-1: 10 µg/ml, trypsin: 10 µg/ml. After a pre-determined time, the same amount of acetonitrile was added to the sample solutions and they were filtered with a 0.5 µm filter (Millex-LH MILIPORE)."}, "aminopeptidase-1": {"test_system": "aminopeptidase-1", "details": "per unit weight of enzyme and unit time, beginning (15 minutes) of reaction, 37°C, Tris buffer pH 7.5; MMP-2 0.17 µg/ml, aminopeptidase-1 10 µg/ml", "description": "as §1"}, "carboxypeptidase A": {"target": "carboxypeptidase A (Homo sapiens, UniProt P15085)", "sequence (P15085 111-419)": "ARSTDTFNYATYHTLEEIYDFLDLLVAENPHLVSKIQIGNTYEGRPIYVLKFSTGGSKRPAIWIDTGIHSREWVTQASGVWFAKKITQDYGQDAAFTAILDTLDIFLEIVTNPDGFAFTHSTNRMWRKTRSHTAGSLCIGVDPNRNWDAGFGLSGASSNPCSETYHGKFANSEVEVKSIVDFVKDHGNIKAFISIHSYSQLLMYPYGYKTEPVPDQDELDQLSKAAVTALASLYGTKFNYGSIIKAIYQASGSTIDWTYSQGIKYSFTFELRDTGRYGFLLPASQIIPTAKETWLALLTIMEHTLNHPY", "details": "per unit weight of enzyme and unit time, beginning (15 minutes) of reaction, 37°C, Tris buffer pH 7.5; MMP-2 0.17 µg/ml, carboxypeptidase A 10 µg/ml", "description": "as §1"}, "trypsin": {"target": "T2, trypsin (Bos taurus, UniProt P00760)", "T2 construct": "gene PRSS1", "T2 sequence (P00760 24-246)": "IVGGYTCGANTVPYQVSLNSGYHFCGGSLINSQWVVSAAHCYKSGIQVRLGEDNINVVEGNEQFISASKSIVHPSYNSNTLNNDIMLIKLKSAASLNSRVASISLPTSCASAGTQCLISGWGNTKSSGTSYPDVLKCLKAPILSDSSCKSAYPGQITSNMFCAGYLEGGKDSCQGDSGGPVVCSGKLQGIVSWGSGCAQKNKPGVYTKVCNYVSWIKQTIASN", "test": "Enzymatic degradation of peptide by trypsin", "assay_type": "biochemical", "details": "trypsin 10 µg/ml, 37°C, Tris buffer pH 7.5", "description": "as §1"}},
  "note": "Where a SMILES comes first, the peptide text is derived from it. The star is where a group is joined. X1 = O=C(OCC1c2ccccc2-c2ccccc21)N(CC(=O)*)C(=O)OCC1c2ccccc2-c2ccccc21; Fmoc = O=C(OCC1c2ccccc2-c2ccccc21)*",
  "data": [
    {"compound": "9-fluorenylmethyloxycarbonyl (Fmoc)-glycyl-prolyl-glutamyl-glycyl-isoleucyl-alanyl-glycyl-tryptophanyl-glycyl (Gly-Pro-Gln-Gly-Ile-Ala-Gly-Trp-Gly)-amide propyl polyoxyethylene methyl ether (Fmoc-GPQGIAGWG-{amide propyl polyoxyethylene methyl ether}; not fully specified) [Fmoc-GPQGIAGWG-PEG]", "values": [
      {"measurement": "Particle diameter", "setting": "[1]; Concentration 5 µM in Tris buffer pH 7.5", "result": 232, "unit": "nm"},
      {"measurement": "Particle diameter", "setting": "[1]; Concentration 10 µM in Tris buffer pH 7.5", "result": 200, "unit": "nm"},
      {"measurement": "Particle diameter", "setting": "[1]; Concentration 20 µM in Tris buffer pH 7.5", "result": 205, "unit": "nm"},
      {"measurement": "Particle diameter", "setting": "[1]; Concentration 50 µM in Tris buffer pH 7.5", "result": 210, "unit": "nm"},
      {"measurement": "Particle diameter", "setting": "[1]; Concentration 100 µM in Tris buffer pH 7.5", "result": 237, "unit": "nm"},
      {"measurement": "particle diameter of aggregate", "setting": "[1]; at 5 µm or more", "result": "approximately 200 nm"},
      {"measurement": "critical micelle concentration", "setting": "[1]; concluded from particle diameter and laser scattering intensity, Tris buffer pH 7.5", "result": "~5", "unit": "µM"},
      {"measurement": "degradation rate by MMP-2 per unit weight of MMP-2 and unit time, peptide compared with peptide-PEG", "setting": "MMP-2", "result": "virtually the same"}
    ]},
    {"compound": "CC[C@H](C)[C@H](NC(=O)CNC(=O)[C@H](CCC(=O)O)NC(=O)[C@@H]1CCCN1C(=O)CN(C(=O)OCC1c2ccccc2-c2ccccc21)C(=O)OCC1c2ccccc2-c2ccccc21)C(=O)N[C@@H](C)C(=O)NCC(=O)N[C@@H](Cc1c[nH]c2ccccc12)C(=O)NCC(=O)O", "note": "[Fmoc-GPQGIAGWG, 9-fluorenylmethyloxycarbonyl (Fmoc)-glycyl-prolyl-glutamyl-glycyl-isoleucyl-alanyl-glycyl-tryptophanyl-glycine (Gly-Pro-Gln-Gly-Ile-Ma-Gly-Trp-Gly)] (X1-PEGIAGWG-OH)", "values": [
      {"measurement": "degradation rate by MMP-2 relative to that of collagenase", "setting": "collagenase", "result": 26.9, "unit": "x"},
      {"measurement": "degradation rate by MMP-2 relative to that of aminopeptidase-1", "setting": "aminopeptidase-1", "result": 14.2, "unit": "x"},
      {"measurement": "degradation rate by MMP-2 relative to that of carboxypeptidase A", "setting": "carboxypeptidase A", "result": 38.8, "unit": "x"},
      {"measurement": "Degradation by trypsin", "setting": "trypsin", "result": "not observed"},
      {"measurement": "degradation rate by MMP-2 per unit weight of MMP-2 and unit time, peptide compared with peptide-PEG", "setting": "MMP-2", "result": "virtually the same"}
    ]}
  ]
}
